Reference: US20150196651A1 (published 2015)
Square brackets hold non-standard residues; d marks the D form. Ends that are not written are not given here. * marks the point of attachment. 1Nal = N[C@@H](Cc1cccc2ccccc12)C(=O)O; Stearoyl = CCCCCCCCCCCCCCCCCC(=O)*; Palmitoyl = CCCCCCCCCCCCCCCC(=O)*; Myristoyl = CCCCCCCCCCCCCC(=O)*; PheCl2 = dichlorophenylalanine; Lauroyl = CCCCCCCCCCCC(=O)*; PheNO2 = nitrophenylalanine; Decanoyl = CCCCCCCCCC(=O)*; Nle = CCCC[C@H](N)C(=O)O; Octanoyl = CCCCCCCC(=O)*

T1: rat PrRP receptor in RC-4B/C cells (rat, UniProt Q64121 1-370)
T1 construct: whole, on cells; endogenous receptor of RC-4B/C cells (ATCC); also called rat receptor; GPR10 receptor expressed in rat hypophyseal cells
T1 sequence (looked up): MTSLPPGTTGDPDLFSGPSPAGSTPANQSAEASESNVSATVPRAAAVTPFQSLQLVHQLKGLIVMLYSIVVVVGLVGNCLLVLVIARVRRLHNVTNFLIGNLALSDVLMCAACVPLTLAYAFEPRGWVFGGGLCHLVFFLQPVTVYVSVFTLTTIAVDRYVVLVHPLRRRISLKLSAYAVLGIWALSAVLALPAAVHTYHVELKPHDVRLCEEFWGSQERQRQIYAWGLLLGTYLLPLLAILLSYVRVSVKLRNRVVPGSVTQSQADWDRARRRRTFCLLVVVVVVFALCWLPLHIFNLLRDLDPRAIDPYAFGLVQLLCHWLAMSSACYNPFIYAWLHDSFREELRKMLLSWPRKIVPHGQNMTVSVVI

T2: human PrRP receptor GPR10 (human, UniProt P49683 1-370)
T2 construct: whole, on cells; also called GPR10 human receptor transfected in CHO cells; human GPR10 receptor
T2 sequence (looked up): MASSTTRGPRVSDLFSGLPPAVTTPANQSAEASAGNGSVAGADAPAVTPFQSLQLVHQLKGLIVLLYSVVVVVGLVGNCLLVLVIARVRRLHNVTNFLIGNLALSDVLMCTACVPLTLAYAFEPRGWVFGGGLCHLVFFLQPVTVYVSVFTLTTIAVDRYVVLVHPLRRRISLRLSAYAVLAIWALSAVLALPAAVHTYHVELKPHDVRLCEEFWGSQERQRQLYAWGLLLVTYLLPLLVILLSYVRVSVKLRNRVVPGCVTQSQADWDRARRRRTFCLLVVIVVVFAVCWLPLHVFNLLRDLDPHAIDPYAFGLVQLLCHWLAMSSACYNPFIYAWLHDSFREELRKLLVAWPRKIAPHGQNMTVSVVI


What was measured:
[1] = biological target: T1, rat PrRP receptor in RC-4B/C cells; assay: competition with 125I-rat PrRP31, RC-4B/C cells
Outline: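 Incubation 60 min at room temperature; cells solubilized in 0.1 mol/l NaOH and bound radioactivity γ-counted. Run in duplicate, repeated at least three times.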

[2] = biological target: T2, human PrRP receptor GPR10; assay: competition with 125I-human PrRP31, CHO cells with human GPR10

% of PrRP31 [1] | Ki [1] | % of PrRP31 [2] | Ki [2] | Binder
514% | 0.96 nM | 72% | 5.39 nM | Stearoyl-SRAHQHS[Nle]ETRTPDINPAWYTGRGIRPVGRF-NH2 [analog no. 9]
2.5% | 19.9 nM | 81% | 4.8 nM | SRAHQHS[Nle]ETRTPDINPAWYTGRGIRPVGR[PheNO2]-NH2 [analog no. 16]
1260% | 0.39 nM | 327% | 1.19 nM | Lauroyl-SRAHQHS[Nle]ETRTPDINPAWYTGRGIRPVGRF-NH2 [analog no. 6]
275% | 1.79 nM | 409% | 0.95 nM | Myristoyl-SRAHQHS[Nle]ETRTPDINPAWYTGRGIRPVGR[PheCl2]-NH2 [analog no. 14]
4.8% | 102 nM | 11% | 34.5 nM | SRAHQHS[Nle]ETRTPDINPAWYTGRGIRPVGR[1Nal]-NH2 [analog no. 10]
227% | 2.17 nM | 91% | 4.27 nM | Palmitoyl-SRAHQHS[Nle]ETRTPDINPAWYTGRGIRPVGR[1Nal]-NH2 [analog no. 12]
967% | 0.51 nM | 128% | 3.03 nM | Palmitoyl-SRAHQHS[Nle]ETRTPDINPAWYTGRGIRPVGRF-NH2 [analog no. 8]
128% | 3.84 nM | 171% | 2.27 nM | SRAHQHS[Nle]ETRTPDINPAWYTGRGIRPVGR[PheCl2]-NH2 [analog no. 13]
124% | 3.96 nM | 292% | 1.33 nM | Myristoyl-SRAHQHS[Nle]ETRTPDINPAWYTGRGIRPVGR[1Nal]-NH2 [analog no. 11]
4.6% | 123 nM | 1.5% | 262 nM | Myristoyl-SHQRPADTHWYPRG[Nle]FPTIGRITARNGEVSR (scrambled peptide; also called 20 scram) [analog no. 20]
758% | 0.65 nM | 266% | 1.46 nM | Decanoyl-SRAHQHS[Nle]ETRTPDINPAWYTGRGIRPVGRF-NH2 [analog no. 5]
1030% | 0.48 nM | 90% | 4.33 nM | Myristoyl-TPDINPAWYASRGIRPVGRF-NH2 (SMILES CCCCCCCCCCCCCC(=O)N[C@H](C(=O)N1CCC[C@H]1C(=O)N[C@@H](CC(=O)O)C(=O)N[C@H](C(=O)N[C@@H](CC(N)=O)C(=O)N1CCC[C@H]1C(=O)N[C@@H](C)C(=O)N[C@@H](Cc1c[nH]c2ccccc12)C(=O)N[C@@H](Cc1ccc(O)cc1)C(=O)N[C@@H](C)C(=O)N[C@@H](CO)C(=O)N[C@@H](CCCNC(=N)N)C(=O)NCC(=O)N[C@H](C(=O)N[C@@H](CCCNC(=N)N)C(=O)N1CCC[C@H]1C(=O)N[C@H](C(=O)NCC(=O)N[C@@H](CCCNC(=N)N)C(=O)N[C@@H](Cc1ccccc1)C(N)=O)C(C)C)[C@@H](C)CC)[C@@H](C)CC)[C@@H](C)O) [analog no. 2]
250% | 1.97 nM | 245% | 1.59 nM | Myristoyl-SRAHQHS[Nle]ETRTPDINPAWYTGRGIRPVGR[PheNO2]-NH2 [analog no. 17]
503% | 0.98 nM | 254% | 1.53 nM | Octanoyl-SRAHQHS[Nle]ETRTPDINPAWYTGRGIRPVGRF-NH2 [analog no. 4]
379% | 1.3 nM | 370% | 1.05 nM | Palmitoyl-SRAHQHS[Nle]ETRTPDINPAWYTGRGIRPVGR[PheCl2]-NH2 [analog no. 15]
850% | 0.58 nM | 505% | 0.77 nM | Palmitoyl-SRAHQHS[Nle]ETRTPDINPAWYTGRGIRPVGR[PheNO2]-NH2 [analog no. 18]
714% | 0.69 nM | 548% | 0.71 nM | Myristoyl-SRAHQHS[Nle]ETRTPDINPAWYTGRGIRPVGRF-NH2 [analog no. 7]
